± gives the uncertainty stated by the source.
Assay: protein stability index of a GFP-peptide fusion (yeast GPS) (PSI 1-4); higher = more stable; sorted into four equal gates, so the index is relative within each strain
In short: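 The protein stability index combines read frequencies across sorting gates, each weighted by its gate number and then summed. To obtain those frequencies, a pooled yeast library of GFP fusions to tiled 17-residue yeast protein peptides, on a plasmid also expressing Cherry, was grown to mid-log phase in leucine-free medium. The cells were sorted into four equal gates by GFP/Cherry ratio before plasmid amplification by PCR and Illumina sequencing.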

Sequence	protein stability index (doa10∆)	protein stability index (pdr5∆)	protein stability index (san1∆)	protein stability index (ubr1∆)
KDLENAQVEMKSLEEQE [SMC1]	3.43 ± 0.14	3.12 ± 0.1	3.37 ± 0.085	3.3 ± 0.081
STTASGTTATGTGLFGQ [YGR119C/NUP57]	3.18 ± 0.074	3.35 ± 0.067	3.27 ± 0.068	3.43 ± 0.055
GNESVKPQFENHVKQFY [MED11]	2.83 ± 0.19	2.57 ± 0.22		
ITNDWEQPCVDIISGKI [YJR042W/NUP85]	3.36 ± 0.078	3.44 ± 0.066	3.18 ± 0.053	3.02 ± 0.058
LLDFNTALKQYEKELMG [RPN6]	3.14 ± 0.25	3.33 ± 0.19	3.32 ± 0.25	3.12 ± 0.13
SKFTKIPPTFDKGAVGP [MED4]	3.17 ± 0.072	3.29 ± 0.079	3.33 ± 0.076	3.08 ± 0.11
HQHIGKASTISRGAVSG [RPL2A]	2.55 ± 0.043	2.39 ± 0.059	2.83 ± 0.055	3.12 ± 0.05
YVERFETQLKVVTRSKE [SMC1]	1.12 ± 0.066	2.29 ± 0.091	1.26 ± 0.2	2.11 ± 0.051
NSFKLFKAEKLQIVNQL [RPC17]	2.82 ± 0.077	2.32 ± 0.076	1.85 ± 0.16	2.13 ± 0.056
IDDKGVLMERKDERGEG [ITC1]	3 ± 0.21	3.5 ± 0.18	3 ± 0.15	3.02 ± 0.21
SNVAAIFKGIGGNFKDL [GAL11]	2.78 ± 0.11	2.76 ± 0.079	2.58 ± 0.079	2.72 ± 0.1
NLYTPKAEMPPEHLRKI [PRP8]	2.53 ± 0.072	2.38 ± 0.062	2.78 ± 0.073	2.12 ± 0.053
LEDGDVVLFNRQPSLHR [RPO31]	2.42 ± 0.072	2.67 ± 0.062	2.47 ± 0.072	2.08 ± 0.051
NEYYPMCEQALSALFTI [YCS4]	2.2 ± 0.062	2.65 ± 0.088	2.47 ± 0.077	2.39 ± 0.045
LSLNLGDYGSAKCNSLL [POP5]	2.47 ± 0.061	2.94 ± 0.077	2.57 ± 0.081	2.46 ± 0.093
LDPNLITLALSSNPNSS [SRB4]	2.31 ± 0.067	2.86 ± 0.095	2.4 ± 0.084	2.56 ± 0.11
FMVRLDSEKHIDFAPTS [RPS9A]	2.91 ± 0.071	2.87 ± 0.047	2.72 ± 0.05	2.82 ± 0.047
RVEPETFEIPQAHEIVI [SWI3]	2.53 ± 0.073	2.84 ± 0.08	2.54 ± 0.079	2.94 ± 0.05
LNAIVSKNSPAEDDVII [YJR042W/NUP85]	3.44 ± 0.14	3.37 ± 0.17	3.27 ± 0.087	3.22 ± 0.12
FTQQELQKQMGIGSLTD [RPC34]	2.22 ± 0.088	2.39 ± 0.11	2.33 ± 0.17	2.48 ± 0.11
YPVLRKLYKKIAKFERS [YIL149C/MLP2]	2.42 ± 0.079	1.99 ± 0.06	2.56 ± 0.071	2.88 ± 0.039
RNNSNNKTSNNNNVTAV [SWI1]	2.73 ± 0.05	2.6 ± 0.054	1.74 ± 0.096	2.81 ± 0.044
TYRCSIKNLPADVSKLM [SRB2]	2.56 ± 0.061	2.83 ± 0.05	2.33 ± 0.05	2.69 ± 0.044
AAEGLCKLFLADVFTDD [YCG1]	3.25 ± 0.061	3.26 ± 0.061	3.14 ± 0.043	3.14 ± 0.039
SRTGPVFDLCWNSLMYA [RRP43]	2.64 ± 0.06	2.45 ± 0.048	2.6 ± 0.048	2.41 ± 0.032
KSSSNRSCVSNSNENGT [RPN4]	3.02 ± 0.06	3.08 ± 0.07	3.01 ± 0.05	3.03 ± 0.048
MNLDFDIEEGPITSKSW [MCD1]	2.85 ± 0.15	3.16 ± 0.093	3.17 ± 0.072	3.49 ± 0.18

Sequence	protein stability index (doa10∆)	protein stability index (pdr5∆)	protein stability index (san1∆)	protein stability index (ubr1∆)
NSEKFVFLLTTRAGGLG [ISW2]	1.67 ± 0.26	1.4 ± 0.13	1.11 ± 0.11	1.51 ± 0.12
MLQMKGKLLRNYTQNID [SIR2]	2.91 ± 0.076	2.36 ± 0.11	2.78 ± 0.086	2.02 ± 0.058
DVVMKATEPQMVLFNIY [PRP8]	2.03 ± 0.046	1.76 ± 0.049	1.58 ± 0.078	1.77 ± 0.043
LRPRKDSKDGTTLNIKV [SMB1]			3.18 ± 0.12	
LSLEEVEGHLFEIIDEA [FAS1]	3.01 ± 0.11	3.29 ± 0.1	3.09 ± 0.063	3.07 ± 0.069
CQEEVSTIEKDMKEYDS [SMC2]	3.39 ± 0.12	3.51 ± 0.084	3.42 ± 0.081	3.63 ± 0.095
TKNNTQASGITAGAAAN [SSN3]	1.86 ± 0.094	2.08 ± 0.051	2.07 ± 0.11	1.97 ± 0.062
SISGFKEALLGQLLKDH [ARP9]	2.01 ± 0.19	2.29 ± 0.092	1.89 ± 0.08	2.26 ± 0.068
YISKAQNDQWSIQMEFM [SSN2]	2.79 ± 0.064	2.73 ± 0.071	2.71 ± 0.059	3.04 ± 0.053
IIKERALLSKVKWVHMI [SNF2]	1.37 ± 0.059	1.23 ± 0.061	1.34 ± 0.088	1.18 ± 0.042
INVVIKASRKSVGLPSK [ECM29]	1.27 ± 0.089	1.7 ± 0.074	1.95 ± 0.24	1.26 ± 0.13
VAAERAARKAANKEKRA [RPL7A]	2.36 ± 0.21	1.54 ± 0.12		1.71 ± 0.082
RDLILKKGEYARFKSKD [SMC3]	2.81 ± 0.17	2.72 ± 0.18	2.65 ± 0.21	2.77 ± 0.076
VMSSDDENAPVATNANA [PRE10]	3.27 ± 0.18	3.42 ± 0.11	3.15 ± 0.13	2.5 ± 0.26
IKFGGLIIQKIPSLQNN [ECM29]	1.83 ± 0.066	1.72 ± 0.066	1.5 ± 0.064	1.83 ± 0.062
LERRELEGTRVSLEERT [SMC4]	3.4 ± 0.096	3.35 ± 0.082	3.29 ± 0.063	3.36 ± 0.1
FIRKYINQKALRKIQAL [GAL11]	2.38 ± 0.25	1.49 ± 0.22	1.79 ± 0.23	
SKVASSLVIIILVKRYS [ECM29]	1.85 ± 0.054	1.44 ± 0.042	1.71 ± 0.094	2.12 ± 0.051
KRCLFESLSNEAALKAN [RPO31]				2.84 ± 0.22
LYFPDDYPFTQLGYIEN [POP1]	2.71 ± 0.12	3.18 ± 0.074	3.1 ± 0.071	3.16 ± 0.068
EAQIKDWVENELEALKL [FAS2]	1.96 ± 0.14	1.25 ± 0.091		2.01 ± 0.1
FTSHTRLRQGAAKLRTL [RPL2A]	2.03 ± 0.059	1.68 ± 0.044	2.1 ± 0.073	1.95 ± 0.039
AMFAALQQKQQQRFQAL [SWI1]	1.36 ± 0.051	1.62 ± 0.053	1.3 ± 0.12	1.62 ± 0.038
WQGKPVFIRHRTPHEIQ [RIP1]		2.24 ± 0.28		1.68 ± 0.17
REQASKSKKSWLNRLNN [YMR153W/NUP53]	2.31 ± 0.11	2.45 ± 0.099	1.62 ± 0.15	2.92 ± 0.063
NSYWLIILLGVLEDCRH [ITC1]	1.42 ± 0.061	1.53 ± 0.048	2.44 ± 0.083	2.36 ± 0.057
VKLKQQKVNAVDSTFQK [SMC3]		2.9 ± 0.19	3.36 ± 0.15	3.29 ± 0.062

Sequence	protein stability index (doa10∆)	protein stability index (pdr5∆)	protein stability index (san1∆)	protein stability index (ubr1∆)
DPPFRIEEQGWGGFPLD [TAF14]	3.32 ± 0.055	3.33 ± 0.052	3.44 ± 0.048	3.34 ± 0.047
ELEKKYHGNECEINYYE [SRB8]	3.04 ± 0.11	3.19 ± 0.086	3.26 ± 0.064	3.17 ± 0.066
IDNLESYAGISTDKLVQ [SIR2]	2.9 ± 0.057	2.93 ± 0.09	2.94 ± 0.068	3.08 ± 0.044
DVSIEELLREWLETYSE [IRR1]	3.38 ± 0.056	3.34 ± 0.075	3.56 ± 0.067	3.33 ± 0.047
EKRWNDELELEDAIHIA [PRE8]	3.35 ± 0.17	3.25 ± 0.1	3.26 ± 0.13	3.23 ± 0.2
IGIMASDGIVLAAERKV [PRE9]	2.79 ± 0.29		3.37 ± 0.15	
EVVKSLYDRPLKPDLNK [NAS6]	3.18 ± 0.11	3.38 ± 0.098	2.85 ± 0.18	3.42 ± 0.1
EITHPPSTTDDENGDKN [SWI3]	3.09 ± 0.074	3.07 ± 0.072	3.19 ± 0.055	3.31 ± 0.061
EKPLVVPVKLEEIKTVD [RRP6]	2.52 ± 0.13	2.42 ± 0.07	2.76 ± 0.16	2.38 ± 0.068
QVNGNIRKVSNDRESVL [SMC3]	3.12 ± 0.15	1.88 ± 0.079	1.92 ± 0.083	2.18 ± 0.056
IKQDIPIVIIFRALGII [RPB2]	1.61 ± 0.05	1.33 ± 0.037	1.48 ± 0.077	1.49 ± 0.039
ATAALEIILKLCRNPLT [YJL039C/NUP192]	2.03 ± 0.065	1.95 ± 0.063	1.25 ± 0.098	2.38 ± 0.059
LKISLIQIFRAHLWQKI [PRP8]	1.17 ± 0.077	1.18 ± 0.055	1.13 ± 0.13	1.12 ± 0.057
KKIRFLQLIIFLRTQFL [RGR1]	1.53 ± 0.057	1.27 ± 0.041	1.19 ± 0.15	1.21 ± 0.073
AFKSVVSTETFEQPSQR [RPL27A]	2.88 ± 0.062	2.82 ± 0.059	2.71 ± 0.053	3.11 ± 0.067
LTRNAPLDSKDENFASV [SNF2]	3.04 ± 0.08	3.2 ± 0.079	3.07 ± 0.067	3.1 ± 0.074
KEKYGLAVSTILGKNFD [SMC1]	2.98 ± 0.07	2.82 ± 0.066	2.69 ± 0.057	2.58 ± 0.05
PLSAGFNYGKLPLPPSV [SIN4]	2.75 ± 0.074	2.9 ± 0.068	2.84 ± 0.038	2.93 ± 0.051
PRLLGPQLSKAGKFPTP [RPL1A]	2.86 ± 0.066	2.8 ± 0.057	2.74 ± 0.052	2.64 ± 0.035
LKGEIEDYPMSSEIKIY [SIR4]	1.33 ± 0.15		3.25 ± 0.18	1.64 ± 0.2
MSKVMKPSNGKGSRKSS [SNF12]	2.92 ± 0.091	3.27 ± 0.11	3.02 ± 0.11	3.232 ± 0.029
LLARVIQMNNSLQNNLQ [SNF11]	3.01 ± 0.11	2.46 ± 0.097	2.36 ± 0.084	2.06 ± 0.086
ILEHTLFKGTGFNSWEG [PRP8]	2.42 ± 0.12	2.41 ± 0.12	3.38 ± 0.13	1.64 ± 0.039
PNGSGKSNVIDSMLFVF [SMC4]	2.87 ± 0.048	2.87 ± 0.051	2.68 ± 0.055	2.96 ± 0.037
RLNFNQNSSKIVNVLSK [SWI3]	2.56 ± 0.057	2.7 ± 0.051	3.04 ± 0.048	2.93 ± 0.042
